Here are results for 18 molecules from patent US10927178B2, “Anti-CXCR4 antibodies and antibody-drug conjugates” (PFIZER INC., priority 2013, dated 2021).

The test system of experiment [1] is OPM-2-Luc MM cells. Kind of experiment: Systemic OPM-2-Luc multiple myeloma model. In kind it is in vivo, mouse. As for the experimental part:
Humanized anti-CXCR4 antibody h3G10.1.91.A58B was tested for its ability to increase survival and reduce tumor burden of NSG mice using a disseminated/systemic intravenous model of MM. The human MM cancer line OPM-2 was transduced with the luciferase gene (OPM-2-LUC) to allow for “in life” monitoring of tumor burden over time. Cells were cultured at 37° C. in a 5% CO2 incubator in RPMI 1640 media containing 10% fetal bovine serum with 0.5 μg/mL puromycin for luciferase expression selection. 4-6 week old NSG female mice were injected intravenously with OPM-2-Luc cells (5×10^6/animal).
On Day 8 post-cell implantation mice were randomized into three treatment groups (10 animals per group) based on total body bioluminescence intensity. Weekly subcutaneous (s.c.) antibody treatment at 10 mg/kg in a solution of sterile PBS was initiated and carried out for 5 weeks. Melphalan, one of the approved drugs for treatment of multiple myeloma patients, was dosed at 1 mg/kg, twice/week carried out for 3 weeks. Tumor burden was assessed using Xenogen IVIS 200 imaging system. Mice were imaged every 7 days in a ventral position and whole body bioluminescence was determined using Xenogen Living Image software. When mice began to show hind limb paralysis or reached other humane endpoints they were euthanized. Both tumor burden (by bioluminescence) and survival were evaluated as endpoints.

Experiment [2] addresses T1, human CXCR4-enriched lipoparticles (Homo sapiens, UniProt P61073).
T1 construct: purchased Integral Molecular, Philadelphia Pa; LEV101
Description: Biosensor affinity measurement of Fabs on CXCR4-enriched lipoparticles. In kind it is binding. The conditions noted are these: Fab; kinetic titration. As for the experimental part:
One way of determining binding affinity of antibodies to CXCR4 is by measuring binding affinity of monofunctional Fab fragments of the antibody. To obtain monofunctional Fab fragments, an antibody (for example, IgG) can be cleaved with papain or expressed recombinantly. […] Biotinylated WGA can be coated on the SA chip to facilitate capturing Lipoparticles containing CXCR4 proteins. […] J. Mol. Recognit. 12, 279-284 (1999).
The concentrations of the Fab proteins are determined by ELISA and/or SDS-PAGE electrophoresis using a Fab of known concentration (as determined by amino acid analysis) as a standard. Kinetic association rates (kon) and dissociation rates (koff) are obtained simultaneously by fitting the data globally to a 1:1 Langmuir binding model (Karlsson, R. Roos, H. Fagerstam, L. Petersson, B. (1994). Methods Enzymology 6. 99-110) using the BIAevaluation program. Equilibrium dissociation constant (KD) values are calculated as koff/kon.
The binding affinity of each Fab was determined using human CXCR4-enriched lipoparticles (LEV101, Integral Molecular, Philadelphia Pa.). Biotinylated WGA (Sigma Aldrich, St. Louis Mo.)) can be coated on the SA chip to facilitate capturing lipoparticles containing CXCR4 proteins. […] J. Mol. Recognit. 12, 279-284 (1999).

The target of experiment [3] is T2, CXCR4 (CXCR4-expressing HPB-ALL cells) (Homo sapiens, UniProt P61073).
T2 construct: endogenous in cells; host or cells: HPB-ALL (human T cell leukemia)
Kind of experiment: Flow cytometry binding of humanized 3G10 Fabs to HPB-ALL cells (Example 2). Particulars: for MFI 0.25 μg/ml: Fab 0.25 μg/ml; for MFI 2.5 μg/ml: Fab 2.5 μg/ml. As for the experimental part:
150,000 cells were incubated with various h3G10 Fabs at either 2.5 or 0.25 μg/mL in 100 uL binding buffer (PBS+0.5% BSA), followed by incubation with APC-conjugated goat anti-human Fab-specific secondary antibody from R&D systems.

[4] abbreviates: NSG mice, OPM-2-Luc i.v., antibody 10 mg/kg s.c. weekly for 5 weeks, Melphalan 1 mg/kg twice/week for 3 weeks.
The mark [5] stands for this setting: antibody 10 mg/kg s.c. weekly 5 weeks, Melphalan 1 mg/kg twice/week 3 weeks, isotype control 33.5 days.

Positions count from the first letter of the chain named. In names and notes the source's numbering stands.

T1 sequence (P61073 whole entry): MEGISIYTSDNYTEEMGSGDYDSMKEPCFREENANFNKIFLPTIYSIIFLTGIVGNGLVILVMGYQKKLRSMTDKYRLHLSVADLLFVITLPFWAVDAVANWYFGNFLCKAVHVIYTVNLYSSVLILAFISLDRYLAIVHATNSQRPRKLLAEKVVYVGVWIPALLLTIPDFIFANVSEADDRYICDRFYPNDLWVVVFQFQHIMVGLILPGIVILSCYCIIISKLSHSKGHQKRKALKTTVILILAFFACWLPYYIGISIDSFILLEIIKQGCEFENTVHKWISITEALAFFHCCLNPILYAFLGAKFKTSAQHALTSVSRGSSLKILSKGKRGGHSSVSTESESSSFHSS
T2 sequence (P61073 whole entry): as above

Take `N[C@@H](Cc1ccc(N(CCCl)CCCl)cc1)C(=O)O` [Melphalan, reference compound]: the “median survival” value in experiment [1] (setting [4]) and in experiment [1] (setting [5]) was 36 days each time.

B1: h3G10.1.91.A58B: humanized anti-CXCR4 antibody; VH h3G10.1.91 SEQ ID NO:33, VL h3G10.A58B SEQ ID NO:73 (antibody, V domains shown)
VH: EVQLVESGGGLVQPGGSLRLSCAASGFTFSDYYMSWVRQAPGKGLEWVGFIRHKANFETTEYSTSVKGRFTISRDDSKNSLYLQMNSLKTEDTAVYYCARDLPGFAYWGQGTLVTVSS
VL: DIVMTQSPDSLAVSLGERATINCKSSQSLFNSHTRKNYLAWYQQKPGQPPKLLIYWASARGSGVPDRFSGSGSGTDFTLTISSLQAEDVAVYYCKQSFNLRTFGGGTKVEIK
On to B1, for which the “tumor growth (bioluminescence) compared to isotype control antibody” value in experiment [1] (10 mg/kg s.c. weekly for 5 weeks, p<0.0001 on Day 30) was “significantly inhibited tumor growth”. Besides, the “median survival” value in experiment [1] (setting [4]) is given as “Undefined”; in experiment [1] (setting [5]), “undefined”.

B2: h3G10.A57 VH/h3G10.A58B VL: Fab; VH SEQ ID NO:23, VL SEQ ID NO:73 (antibody, V domains shown)
VH: B1 VH with E58Y
VL: B1 VL
modifications: Fab
Consider B2, for which, in experiment [2], the “Ka (1/MS)” value is 6.88E+05 1/MS and the “Kd” value stood at 0.000515 s⁻¹.

B3: h3G10.A57 VH/h3G10.2.72 VL: Fab; VH SEQ ID NO:23, VL SEQ ID NO:49 (antibody, V domains shown)
VH: B1 VH with E58Y
VL: B1 VL with H33R, G61E, N99R
modifications: Fab
Regarding B3, in experiment [2], the “Ka (1/MS)” value is 1.10E+06 1/MS and the “Kd” value is 0.0013 s⁻¹.

B4: h3G10.1.91 VH/h3G10.2.72 VL: Fab; VH SEQ ID NO:33, VL SEQ ID NO:49 (antibody, V domains shown)
VH: B1 VH
VL: B1 VL with H33R, G61E, N99R
modifications: Fab
Take B4: in experiment [2], the “Ka (1/MS)” value is listed as 1.50E+06 1/MS and the “Kd” value was 0.00049 s⁻¹.

B5: h3G10.B44 VH/h3G10.2.72 VL: Fab; VH SEQ ID NO:25, VL SEQ ID NO:49 (antibody, V domains shown)
VH: B1 VH with G49S, E58Y, D76N, S80T, K89R, T90A, R100K
VL: B1 VL with H33R, G61E, N99R
modifications: Fab
In the case of B5, in experiment [3], the “MFI 0.25 μg/ml” value was 4513 and the “MFI 2.5 μg/ml” value was 8908.

B6: h3G10.2.37 VH/h3G10.2.72 VL: Fab; VH SEQ ID NO:35, VL SEQ ID NO:49 (antibody, V domains shown)
VH: B1 VH with E58Y, T60R
VL: B1 VL with H33R, G61E, N99R
modifications: Fab
Take B6: in experiment [2], the “Ka (1/MS)” value was 2.30E+06 1/MS and the “Kd” value is 0.0008 s⁻¹.

B7: h3G10.1.91 VH/h3G10.A58A VL: Fab; VH SEQ ID NO:33, VL SEQ ID NO:57 (antibody, V domains shown)
VH: B1 VH
VL: B1 VL with N99R
modifications: Fab
B7: in experiment [2], the “Ka (1/MS)” value is 9.08E+05 1/MS and the “Kd” value came out at 0.000341 s⁻¹.

B8: h3G10.B44 VH/h3G10.B12 VL: Fab; VH SEQ ID NO:25, VL B12 (probably B12A, SEQ ID NO:61) (antibody, V domains shown)
VH: B1 VH with G49S, E58Y, D76N, S80T, K89R, T90A, R100K
VL: B1 VL with H33R, A40L, G61E, N99R
Take B8: in experiment [3], the “MFI 0.25 μg/ml” value is 2094 and the “MFI 2.5 μg/ml” value came out at 8127.

B9: h3G10.A57 VH/h3G10.B12 VL: Fab; VH SEQ ID NO:23, VL B12 (probably B12A, SEQ ID NO:61) (antibody, V domains shown)
VH: B1 VH with E58Y
VL: B1 VL with H33R, A40L, G61E, N99R
modifications: Fab
Regarding B9, in experiment [3], the “MFI 0.25 μg/ml” value stood at 2921 and the “MFI 2.5 μg/ml” value was 6830.

B10: h3G10.2.37 VH/h3G10.A58A VL: Fab; VH SEQ ID NO:35, VL SEQ ID NO:57 (antibody, V domains shown)
VH: B1 VH with E58Y, T60R
VL: B1 VL with N99R
modifications: Fab
In the case of B10, in experiment [2], the “Ka (1/MS)” value is given as 1.29E+06 1/MS and the “Kd” value came to 0.000418 s⁻¹.

B11: h3G10.B44 VH/h3G10.A11 VL: Fab; VH SEQ ID NO:25, VL A11 (probably A11A, SEQ ID NO:51) (antibody, V domains shown)
VH: B1 VH with G49S, E58Y, D76N, S80T, K89R, T90A, R100K
VL: B1 VL with S26A, H33R, G61E, N99R
modifications: Fab
On to B11, for which, in experiment [3], the “MFI 0.25 μg/ml” value was 3792 and the “MFI 2.5 μg/ml” value is 8306.

B12: h3G10 VH/h3G10 VL: Fab; VH SEQ ID NO:21, VL SEQ ID NO:47 (antibody, V domains shown)
VH: B1 VH with F57G, E58Y
VL: B1 VL with H33R, G61E
modifications: Fab
On to B12, for which, in experiment [2], the “Ka (1/MS)” value is listed as 1.60E+06 1/MS and the “Kd” value was 0.003 s⁻¹.

B13: h3G10.A57 VH/h3G10 VL: Fab; VH SEQ ID NO:23, VL SEQ ID NO:47 (antibody, V domains shown)
VH: B1 VH with E58Y
VL: B1 VL with H33R, G61E
modifications: Fab
On to B13, for which, in experiment [2], the “Ka (1/MS)” value was 1.17E+06 1/MS and the “Kd” value stood at 0.00143 s⁻¹.

B14: h3G10.A57 VH/h3G10.A11 VL: Fab; VH SEQ ID NO:23, VL A11 (probably A11A, SEQ ID NO:51) (antibody, V domains shown)
VH: B1 VH with E58Y
VL: B1 VL with S26A, H33R, G61E, N99R
modifications: Fab
B14: in experiment [3], the “MFI 0.25 μg/ml” value is reported as 1251 and the “MFI 2.5 μg/ml” value is given as 4521.

B15: h3G10.2.37 VH/h3G10.A58B VL: Fab; VH SEQ ID NO:35, VL SEQ ID NO:73 (antibody, V domains shown)
VH: B1 VH with E58Y, T60R
VL: B1 VL
modifications: Fab
As for B15, in experiment [2], the “Ka (1/MS)” value is 7.97E+05 1/MS and the “Kd” value was found to be 0.000449 s⁻¹.

B16: h3G10.1.91 VH/h3G10.A58B VL: Fab; VH SEQ ID NO:33, VL SEQ ID NO:73 (antibody, V domains shown)
VH: B1 VH
VL: B1 VL
modifications: Fab
Regarding B16, in experiment [2], the “Ka (1/MS)” value is reported as 8.03E+05 1/MS and the “Kd” value came out at 0.000286 s⁻¹.

B17: h3G10.A57 VH/h3G10.A58A VL: Fab; VH SEQ ID NO:23, VL SEQ ID NO:57 (antibody, V domains shown)
VH: B1 VH with E58Y
VL: B1 VL with N99R
modifications: Fab
For B17, in experiment [2], the “Ka (1/MS)” value is given as 1.60E+06 1/MS and the “Kd” value is 0.00063 s⁻¹.
